In patent EP4725965A1 (Sunshine Guojian Pharmaceutical (Shanghai) Co., Ltd., dated 2026):

Assays:
human BDCA2-Fc protein = target: T1, human BDCA2-Fc protein (human, UniProt Q8WTT0 45-213); assay: ELISA, BDCA2-Fc coated at 1 ug/mL
T1 sequence: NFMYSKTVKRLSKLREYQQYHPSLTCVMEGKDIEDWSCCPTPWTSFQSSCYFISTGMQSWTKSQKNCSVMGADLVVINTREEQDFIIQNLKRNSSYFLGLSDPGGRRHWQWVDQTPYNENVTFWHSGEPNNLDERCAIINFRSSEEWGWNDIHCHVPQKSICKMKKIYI

[1] = target: T2, human BDCA2 on cells (293FT-BDCA2 stable transfectant) (human, UniProt Q8WTT0 1-213); assay: flow cytometry (FACS) on 293FT-BDCA2 cells
T2 construct: whole, on cells; Also used here as the target for the PBMC assays, where native BDCA2 stands on pDCs; also called CLEC4C
T2 sequence (looked up): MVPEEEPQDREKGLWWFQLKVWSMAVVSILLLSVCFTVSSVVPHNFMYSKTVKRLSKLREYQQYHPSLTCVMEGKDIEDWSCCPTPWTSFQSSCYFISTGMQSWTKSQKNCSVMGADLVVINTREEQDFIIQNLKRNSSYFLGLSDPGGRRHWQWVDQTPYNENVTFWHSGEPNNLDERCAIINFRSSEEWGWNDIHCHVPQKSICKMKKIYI

- EC50 (human BDCA2-Fc protein): 0.0201 µg/mL
- EC50 [1]: 0.0835 µg/mL
B1: 23C10A6B5 (antibody, V domains shown)
VH: QVQLQQPGADLVKPGASVMMSCKASGYTFTSYIIHWVKQTPGQGLEWIGTIYPGNGDTSYNQKFKGKATLTADKSSSTAYMQLSSLTSEDSAVYYCARMGDNEYFDYWGQGTTLTVSS
VL: DIQMTQSPASLSASVGETVTITCRASGNIHNYLAWYQQKQGKSPQLLVYDAETLADGVPSRFSGSGSGTQYSLNINSLQPEDFGSFYCQHFWSTPYTFGGGTKLEIK
notes: Murine monoclonal antibody from hybridoma; also called hybridoma clone 23C10A6B5
